The target of assay [1] is human insulin receptor (HIR) (human) (UniProt P06213). In words: HIR Kd; method not restated (Example 3: 125I-insulin displacement, solubilised HIR).
Assay [2] has the same target. The description is as above. The source holds these as a separate data set.
The target in assay [3] is soluble human insulin receptor-immunoglobulin heavy chain chimera (sIR-Fc; Bass et al., 1996) (human), P06213. In words: phage ELISA.
Assay [4] addresses Soluble IGF-1R (sIGF-1R), R&D Systems Cat. # 391-GR/CF, P08069. The experiment in a line: phage ELISA.
In assay [5] the target is Soluble IGF-1R (R&D Systems, Cat. # 391-GR/CF), P08069.
Assay [6] addresses T1, Insulin receptor prepared according to Bass et al., 1996 (human), P06213.
For assay [7], the target named is Soluble IGF-1R (R&D Systems, Cat. # 391-GR/CF), P08069. In words: phage ELISA: IGF-1R ratio over background divided by IR ratio over background.
The target in assay [8] is T1, Insulin receptor prepared according to …. The experiment in a line: phage ELISA: IR ratio over background divided by IGF-1R ratio over background.
The target in assay [9] is human insulin receptor (HIR) purified from transfected cells after solubilization with Triton X-100 (human) (UniProt P06213). The experiment in a line: competition with 125I-insulin for solubilised HIR, PEG precipitation; Kd calculated.
In assay [10] the target is soluble human insulin receptor-immunoglobulin heavy chain chimera (sIR-Fc; Bass et al., 1996) (human) (UniProt P06213). In words: phage ELISA.

Read-outs that look alike come from different tables or passages of the source. No end group written: not given here.

B1: Fusion 436 (MBP fusion of H2C-9aa-H2C) (protein, not shown: large carriers; small tags and cut ends)
chain: NNNNLGIEGRISEFIEGRAQPAMAFHENFYDWFVRQVSGGSGGSGGSFHENFYDWFVRQVSAAAGAPVPYPDPLEPRAA
On to B1, for which the Kd in assay [1] worked out at 410 nM.

B2: Fusion 464 (MBP fusion of LF-H2C) (protein, not shown: large carriers; small tags and cut ends)
chain: NNNNLGIEGRISEFIEGRDYKDDDDKFHENFYDWFVRQVSAAGAPVPYPDPLEPRAA
Take B2: the Kd in [2] worked out at 39 nM.

B3: RB537 (peptide)
peptide: MADYKDDDDKGSLDESFYDWFERQLGKKGGSGGSWLDQEWAWVQCEVYGRGCPSAAAGAPVPYPDPLEPRPG
On to B3, for which, in assay [1], the Kd is 0.059 nM.

B4: 20E2B-2-B11-IGFR (peptide)
peptide: VVTPVNFYRALEALVRGXRLG
modifications: not fully specified; printed as VVTPVNFYRALEALVRG.RLG; X: residue not identified in the source
With B4, in assay [3], the IR/IGF-1R comparison amounted to 0.1 and the Ratio over Background amounted to 1.1. Moreover, in assay [4], the IGF-1R/IR comparison is 9.4 and the Ratio over Background came out at 10.6.

B5: 20E2B-3-C11-IGFR (peptide)
peptide: CMMXDGFYAGLGCLLTAGEGR
modifications: not fully specified; printed as CMM.DGFYAGLGCLLTAGEGR; X: residue not identified in the source; cysteine pairing not given here
B5: in [3], the IR/IGF-1R comparison was found to be 0.1 and the Ratio over Background is 2.1. Moreover, in [4], the IGF-1R/IR comparison came to 7.5 and the Ratio over Background came out at 15.4.

B6: Fusion 437 (MBP fusion of H2C) (protein, not shown: large carriers; small tags and cut ends)
chain: NNNNLGIEGRISEFIEGRAQPAMAFHENFYDWFVRQVSAAAGAPVPYPDPLEPRAA
Take B6: the Kd amounted to 8300 nM in [2] and 83 nM in assay [1].

B7: B6L-3-G6-IR (peptide, not shown: large carriers)
peptide: DYKDVDTPAQVGWNRLWSVGPGEHWYTDDPFYHXLSELLRESGAAAAGAP
modifications: X: residue not identified in the source; also: phage-displayed fusion
Take B7: the Ratio over Background, IGF-1R (ratio over background) in [5] came to 2.5. In addition, the Ratio over Background, IR (ratio over background) in [6] is 1.8. In addition, in [7], the Comparison IGF-1R/IR worked out at 1.4. Further, in assay [8], the Comparison IR/IGF-1R came out at 0.7.

B8: B6L-4-A7-IR (peptide, not shown: large carriers)
peptide: DYKDAGTPAQVGXNRLWSVWPGEHWNTVDPFYNKLSELLRESGAAAAGAP
modifications: not fully specified; X: residue not identified in the source; also: phage-displayed fusion
As to B8, the Ratio over Background, IGF-1R (ratio over background) in [5] amounted to 3.4. Further, the Ratio over Background, IR (ratio over background) in [6] stood at 1.9. The Comparison IGF-1R/IR in [7] was determined as 1.8. The Comparison IR/IGF-1R in [8] is 0.6.

B9: RB521 (peptide)
peptide: MADYKDDDDKGSLDESFYDWFERQLGKKGGSGGSGSLDESFYDWFERQLGKKAAAGAPVPYPDPLEPRPG
In assay [1], B9 yielded a Kd of 44 nM.

B10: RB517 (peptide)
peptide: DYKDDDDKHLCVLEELFWGASLFGYCSGGGSGGSHLCVLEELFWGASLFGYCSGAAAGAPVPYPDPLEPRAA
For B10, the Kd in [1] came out at 60 nM.

B11: S386 (peptide)
peptide: GSLDESFYDWFERQLG
As for B11, the Kd in assay [9] is 320 nM.

B12: B6Hα-2-C4-IR (peptide)
peptide: RCGRWXAEMGAGDDPFYHKLSELVCG
modifications: not fully specified; X: residue not identified in the source; cysteine pairing not given here
Consider B12, for which, in [3], the IR/IGF-1R comparison worked out at 0.1 and the Ratio over Background worked out at 0.9. Moreover, in assay [4], the IGF-1R/IR comparison amounted to 11 and the Ratio over Background was determined as 9.9.

B13: RB538 (peptide)
peptide: MADYKDDDDKGSLDESFYDWFERQLGKKGGSGGSGGSGGSWLDQEWAWVQCEVYGRGCPSAAAGAPVPYPDPLEPRPG
Turning to B13, the Kd in assay [1] was 0.017 nM.

B14: Fusion 463 (MBP fusion of H2C-3aa-H2C) (protein, not shown: large carriers; small tags and cut ends)
chain: NNNNLGIEGRISEFIEGRAQPAMAFHENFYDWFVRQVSGGSFHENFYDWFVRQVSAAAGAPVPYPDPLEPRAA
Turning to B14, in assay [1], the Kd stood at 960 nM.

B15: Fusion 435 (MBP fusion of H2C-3aa-H2C-3aa-H2C) (protein, not shown: large carriers; small tags and cut ends)
chain: NNNNLGIEGRISEFIEGRAQPAMAFHENFYDWFVRQVSGGSFHENFYDWFVRQVSGGSFHENFYDWFVRQVSAAAGAPVPYPDPLEPRAA
As for B15, the Kd in assay [2] amounted to 2000 nM; in [1] it was 20 nM.

B16: A6L-0-H3-IR (peptide)
peptide: YRGMLVLGRISGGAGKAASERPARIGQKVSAVNFYDWFV
Consider B16, for which, in assay [10], the IR/IGF-1R comparison came out at 0.1 and the Ratio over Background was determined as 2.

B17: H2CA-4-H9-IGFR (peptide)
peptide: RGAVAGFHDQFYDWFDRQVSRVHKFG
As for B17, in assay [10], the IR/IGF-1R comparison stood at 0.3 and the Ratio over Background turned out to be 1.9.

(Values after patent US20070265189A1.)
